According to a protein production outcome set (Wang et al. 2014):

Experiment: label from the status in PepcDB records

Sequence	protein production
MNSFLIIIFRLYLPISVAILTGVLLSFSLEKLQGNFSKNKHLSLVVPNYLGKFLFWFGVPLGVINFVHKANLSGGIWLSPIVAWGAVVLGIFLSWLWVQTLFPKPSLAFQTSFTLVSTVGNTSYIGFPIILLLPQLGPDYFGWAILYDLLGTFLAAYGLGSILASRSLLTNPNKIISFGLDSPVFPINQKTITDHIKSSILKIFQWLKNNLVILVKNPTLIAFIIGLILRPIVFPPWLDISLGWFAWSIIMLSLILMGMRLQQLDSWGNIKIAFSAVSIKMLLVPLVIAMALTTAGLSGPPRLVLVLQSSMPSAFASLILAEAYDLDRDLVVTCLGLSSLMLFFTLPFWLWGFTTW	failed
MIMNKIKKILKFCTLKKYDTSSALGREQERYRIISLSVISSLISKILSLLSLILTVSLTLPYLGQERFGVWMTITSLGAALTFLDLGIGNALTNRIAHSFACGKNLKMSRQISGGLTLLAGLSFVITAICYITSGMIDWQLVIKGINENVYAELQHSIKVFVIIFGLGIYSNGVQKVYMGIQKAYISNIVNAIFILLSIITLVISSKLHAGLPVLIVSTLGIQYISGIYLTINLIIKRLIKFTKVNIHAKREAPYLILNGFFFFILQLGTLATWSGDNFIISITLGVTYVAVFSITQRLFQISTVPLTIYNIPLWAAYADAHARNDTQFIKKTLRTSLKIVGISSFLLAFILVVFGSEVVNIWTEGKIQVPRTFIIAYALWSVIDAFSNTFASFLNGLNIVKQQMLAVVTLILIAIPAKYIIVSHFGLTVMLYCFIFIYIVNYFIWYKCSFKKHIDRQLNIRG	failed
RLLRLKLSSLGVLKVFPNRDEAYKDIFKDLVDSNEILLLGYKGNALLSNSDYPSRLEILEEYSRGQKIAIKALLLSPQAKQYVKKRSVELGEKNLHRNHSRDIEDSIVNFRKVKENGILDVECRLFSEALKWSLLFSDKYILVSFYNNKVRVKLSPCFKLRRSSMLGWAFEKHFRDLWEKKSIDAFTSYTRPCVIVVVGGSFTGKSIISNHLSNKYQFSGVLSTDMVRNFFRISTRDRKTYQTSTYRMDDSELNIQKNNVSNMIEQMLEIYRSRREKIIIEGMHLTEDFLRNINKQDCLIIGLDNKRDINDRLDLKMKTTREEVSKKTEDEKKRINEIHYGIIECCKRNNFKVVEFQDIEDAKDKCEHLVEEFFTQRSKR	failed
MTISEVSKKYELSADTLRYYERIGLIPPVNRNKSGIRSFTEEDCEWVNFIKCMRGAGLSIETLIEYVAMFQQGSSTIKARKELLIEQRNQLAKRIEEMQKTLERLNFKIDRYEEGIIEKEKVLKSSRNKKMEAVS	failed
ETQPESAAFTAPSTDNPIRINFNENPLGMSPKAQAAARDAVVKANRYAKNEILMLGNKLAAHHQVEAPSILLTAGSSEGIRAAIEAYASLEAQLVIPELTYGDGEHFAKIAGMKVTKVKMLDNWAFDIEGLKAAVAAYSGPSIVYLVNPNNPTGTITPADVIEPWIASKPANTMFIVDEAYAEFVNDPRFRSISPMITQGAENIILLKTFSKIHAMAGMRVGYAVAHPTVIALMGRYVAGEKINFSGVDAALASMNDSAFITYSKKSNDVSRQILLKALEDLKLPYLPSEGNFVFHQLVVPLKDYQTHMADAGVLIGRAFPPADNWCRISLGTPQEMQWVADTMREFRKKSWI	not failed
MGYNTIPAGKDLPNDIYVAIEIPANASPIKYEIDKDMDALLVDRFMATPMFYPANYGYINNTLADDGDALDVLVITPYPVAPGSVIRARPVGVLKMSDEAGGDEKLLAVPHEKLTQLYNDIHDIDDVPQLLKDQIVHFFEHYKDLEKGKWVKVEGWENADAARAAIVKSAAAYKG	not failed
FEDFNTNPYQPSKVPASNLLSTMFNVYACPQQNACQEINCMWASFSGQVTATANWSFGKNIFAYYNASEGHNDSSWGRLYGYIYPSFFLVENSTEKKGVIYAMAQLTRVYGMQLLASLQGPIPYTQMKAGETEAPYDNEQTVWHAMFDDLDNAITILKSAATFGVNQDLAVVDQFYKGDCSKWLKFANTLKLRMAIRISGVEPEYAQTKAQEAVLGGVMESVGDSSYDTTNGGINENGYAIVSGWPEVRANACLVSYMNGYNDPRRPAYFTPQTQTAAGGYVGVRSGSAEIPEPTVYANYSKLFIATDKTLPQPVMYAAEAAFLRAEGALKGWNMGGDAKTFYEKGVRLSFEEFGVSGADDYLADATSIPGNYVDNLIAGHTGNNYTNQSSITIKWEDGADDAKKLERVLTQKWIACYPDPMNGWADFRRTGYPRIFPATESMNADCNTGRGQRRLRFTRSEYNNNKANVEAAVSMLSNGKDSNGTDLWWAMKENGTY	not failed
MGHHHHHHSHMATGQDRVVALVDMDCFFVQVEQRQNPHLRNKPCAVVQYKSWKGGGIIAVSYEARAFGVTRSMWADDAKKLCPDLLLAQVRESRGKANLTKYREASVEVMEIMSRFAVIERASIDEAYVDLTSAVQERLQKLQGQPISADLLPSTYIEGLPQGPTTAEETVQKEGMRKQGLFQWLDSLQIDNLTSPDLQLTVGAVIVEEMRAAIERETGFQCSAGISHNKVLAKLACGLNKPNRQTLVSHGSVPQLFSQMPIRKIRSLGGKLGASVIEILGIEYMGELTQFTESQLQSHFGEKNGSWLYAMCRGIEHDPVKPRQLPKTIGCSKNFPGKTALATREQVQWWLLQLAQELEERLTKDRNDNDRVATQLVVSIRVQGDKRLSSLRRCCALTRYDAHKMSHDAFTVIKNCNTSGIQTEWSPPLTMLFLCATKFSASAP	failed
MLITISDIAWGIALSIWVAIVVLYISKLISKKFGAYVTRKAIHMLGGGIVAVLSPFVFNSPLVPIITSYLIMAYLITIRVLRKEMSWFMDKENLGEVFFAFSFGTVLLVMFILDPNYWTSTDLIYVAVLPLIFMSFGDGITGIIRNFVYKRRVKGLWGSMGMLIFCATVGYFVLNIPGLIAGILATVAELLPYIDDNISVPFLSFLFLYLFVRVL	failed
MEKKLKRRESMSTTAAESPPAKRRRTVTGNENSALIEGLPDHISEICLSLVHRPSLLSAVCTRWRRLLYSPEFPSFPSLYALFVDSTSDTGRVNPSVRFMCFNPVSSKWYPLPPPPPDPPLHRILYRHPSFISFNLPIQCVSAAGKLILIAGSNQQLSPAISHPLIFDPISSSWSSGPRIGSPRRWCATGACDGAIYIASGISSQFSSTVAKSVEKLDLTEQNRNNHRFNWEKLRDMRDLRFSREAIDAVGYRRKLLMVNVKGDAVKEGAIYDVVKDDWEPMPEEMLVGWRGPVAAMEEEILYSVDERRGTVRKYDDEKREWREVVVVEGGEEMLKGATQVTADSGKLCVVTGDGKIVVVDVAAEPAKIWNVEIPDGLEPVSVHVLPRMSQPNFC	failed
MKKESLFRYAREHFNSEPEYLWSNLPDYAVLRHDHGDKWFGIVMSVRGSTLGLKTDDKVDILDVKVRPEYIGSLRQKEGVLPAYHMNKEHWISVILSGPLSTKEIHELLADSHELTSGLEHHHHHH	not failed
IIAKKTNDIQQDIILHSEFANRHGLIAGATGTGKTVTLKVMAESFSRIGVPVFLADAKGDVSSIAKAGSDNPKFDARIKSLGIESIPFAASPTIFWDLFGEQGHPIRTTISEIGPLLLAQMLNLNDTQEGVLSALFRIADDQGLLLIDFKDLKAMLSYVSENAADLKAEYGNLSPASIGAIQRNLLALGDQGGEQFFGEPSLNILDFIQTDSNGHGYINVLAADKLMNTPKLYATFLLWMLSELFEQLPEVGDLDKPKLVFFFDEAHLLFDNASPALQQKIEQVVRLIRSKGVGIYFITQNPLDLPESVLGQLGNRVQHALRAFTPKDQKAVKTAADTFRANPEFKVDQAITELAVGEALISCLDEQGTPQIVERGWVMPPYSSFSPLSPQERQAFMAQSIVAGVYENAVDRDSAYEMLQRKVNESTAQQQAQAEAKQQEANAKQQAKEQERLAREQQKAEEKAQRDREKLTQDVIGTFAKSAARTLGGPTGQKLVRGLLGSLFGKR	failed
MKLGIGKIKDVLKSGAGKSTESGREEQKIEEIEPDRVEEATMTAKISEQESENTPDKEHLVPMNRTECKKTGLIFFPAFDWAISPTHPEREERLLYTRDQIFEEGLMDLPQIAEYKPRLAEFKDIARVHFCIPDIEAQATTPHLIAAGSCLVLADALMRGEVKNAFALVRPPGHHAMTVAHGNRGFCNINNEAILVEYLRKKYGIRRIAIVDTDVHHGDGTQEIFYNDPDILFISFHQDGRTLYPGSGFTNELGGPKALGRTINIPLPPGTPDEGILYVLDSLVMPILEDFKPELVLNSAGQDNHYTDPLANMRFSAQGYAKLNEKLGPDMAVLEGGYAIQSALPYVNTGIILAMAGLDYSCVMEPDFKPGMFVQAARDRQILEGVVATQLENWKNRNRLVEEEIAKHGDFYRRKKQIFYDTDMIQEVQEETIKMCPDCQGYVTIDSRAHRSINDTRIFGVSVPIYACNRCQAEAEEEYKKRLKSPEYEYVYLQDKKADEYRAYNMRTKQEIVY	failed
MGHILDSRRCALSVTQQQVLDSLARIKSPRGVALPNANVLSAISASDGKVFFSINVDAAEARAWEAVRAEAEAAVRAIPGATTVMVALTAERKPGSAPPPPPTPSRGTPGVQPVHAHKPPQGGGSPMARQSEIPGVAAVIAVASGKGGVGKSTTALNLALGLRDLGLKVGLLDADIYGPSVPRLTGLRDKPELDGERKMIPLRRFGLAIMSIGFLVEEETAMIWRGPMVMSAVTQMLRDVAWGSLDVLVVDMPPGTGDAQLTLAQNVPLKGAVIVSTPQDLSLIDARRGLAMFRKVNVPVLGIVENMSYFQCPHCGTKSDIFGHGGARHEAEKLGVPFLGEIPLHMAIRATSDAGNPVVDSEPDGPHAAIYRAIAGQVRDQLKGAIAAA	failed
MNQVEMTEFPVGKPQEALYGVASTPDGALWFTLAKGNAIGRLSPDGAVSRFPLPHTDGQPTTITCGPDGRPWFTLSSANAIGRLAPDGALRMFELPRPASRPFGIAGGHDGCLWFAEMAGDRIGRITIDGDIEEYDLPVKGGYPSCMAAGRDGLMWFTLNQAGAVGSISATAAPRIFPLGAADAAPVGIASDAQGALWIAQAGNGAIVRFDAGGRITEFPLHSRAARPHAIAADAAGNLWFTEWGANRIGRISEAGDLAGYELAAPGSEPHGIAIDPHGCVWAALETGRLVRLQASPRDLEHHHHHH	not failed
MLSYPGELQGCRVILYLVGHHLYLIPTTISMCGCPEEGAYMRRLWGYISIITATIFFGISATLDKIMLSSMHPVTIGAYTYIIAGIFLFFIRETPLREHVLNAINRKGESEARIKRNDYLILLLTALLSTVIAPLLFLTGLGDTTAVNASLILNVEVLFIILLGYLIFRETLQLKDFLGIVLIILGAVYLLTEGDFSTILRNVAVTGNFLVMAAAFFWSLDTVLSKFLSRKRDLIFISGVKSSVGGFVLLIIMLILGINTELPLEMLPYALGVSVFSIGCSFILIYIAIREIGASMVGALFPLSSLFGAIFAFIILREPFSIMQGISGIVMLTGVFILYWNGK	failed
MLKERAGAVSAGLRALDLALVAAAFGLALALRAAVDVPAVPPLLPAGRHLAWLAVALALWPAAAGAAGVYGQYRTRSRREEILRLARAVGLLALGVAAASFLGRDRDLSRLLLLGWNGIALVLLAGSRVAVRTLAHEARRRGHNTRAFAVVGSGPMARAMRQRLLARPEWGFTFAGFVLEEGAPRRGIPGPVLGRVDELAAVLERYVVDLVVFAVPRDRLPGMEAAVAACQEQGVVAKIGLEPFPPRHGRLTVEDLDGIPVLSYASAPQDALPLLAKRAIDVVASALALVVLSPLLAAVALAVRLDSPGPVLFRQRRVGLSGRTFTLYKFRSMRAGAEAEQARLADRNEMDGPVFKLRDDPRVTRVGKVLRRTSLDELPQLWNVLRGEMSLVGPRPPLPDEVRRYERWQRRRLSVKPGLTCTWQVSGRSEVGFGRWMQLDLDYIDRWSLWQDVRIVLRTIPAVLLGRGAR	failed
